Results reported in the supplement of paper PMC10567573.

B1: ZBED3 (parent)
chain: GPGFHAGTSALWRHLRSAHRRELE

Variants of: B1
Assay: protein stability index of a GFP-peptide fusion (GPS, HEK-293T) (PSI 1-6); higher = more stable
Settings: c terminus: a fixed tail appended
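Note: lentivirally expressed fusions sorted by FACS into six bins by GFP to DsRed ratio, PSI derived from sequencing read proportions per bin multiplied by bin number.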

Protein stability index: each site, then its substitutions
G7: M 2.35; N 2.69; L 1.45; A 2.62; D 3.25; W 1.52; K 2.01; P 2.23; Q 2.47; S 2.73; Y 2.68; E 5.51; R 2; T 2.21; C 1.75; V 2.19; I 2.31
L15: D 1.87; Q 1.78; A 1.93; G 1.27; F 2.16; H 2.34; R 3.45; E 1.76; W 2.7; S 2.21; N 2.57; Y 2.1; K 3.15; P 1.76; I 2.3; T 2.05; M 2.7
A10: P 2.28; D 3.22; W 2.38; K 2; R 3.4; C 2.32; G 2.67; S 2.52; M 2.02; Q 2.43; Y 2.31; I 1.85; N 2.67; F 2.33; H 2.63; L 1.88; T 3.08; V 2.6; E 4.86
R20: A 1.82
R13: L 1.79; E 2.14; H 1.98; G 1.81; K 2.08; A 2.8; P 2.12; I 1.88; M 1.99; V 1.88; F 1.73; C 1.47; N 2.13; T 1.99; Q 2.72; Y 2.1; S 1.36; W 1.93
S17: D 2.9; Q 2.03; E 2.78; A 2.14; Y 2.38; F 2.25; G 2.6; C 1.56; H 1.85; K 2.51; L 3.44; N 1.69; V 1.94; M 2.25; W 3.17; P 1.9; R 2.42; T 2.65; I 2.17
F4: H 3.16; D 3; A 3.15; N 2.84; K 3.62; V 3; T 3.75; Q 4.02; M 2.68; Y 3.37; W 2.22; E 2.83; I 2.99; L 3.3; G 3.01; S 3.39; P 3.59; C 3.19; R 4.36
T8: C 2.51; Y 2.37; L 2.52; K 2.5; E 2.48; A 1.75; D 3.67; F 1.64; M 2.37; R 2.37; W 2.23; I 2.09; G 2.26; N 2.91; H 2.4; S 2.89; V 1.84; P 2.88; Q 1.98
S9: Q 2.96; G 1.71; N 2.68; I 1.74; H 2.53; E 3.25; D 2.99; C 2; A 2.11; L 3.28; T 3.06; M 2.44; F 2.23; W 2.05; V 1.92; Y 3.23; R 3.03; K 2.68; P 2.08
P2: M 2.53; G 3.2; H 3.39; F 1.89; N 3.5; K 3.06; S 2.92; L 2.5; E 3.53; Q 4.32; Y 2.54; V 2.77; T 3.01; W 2.18; I 2.8
H5: C 3.46; I 2.15; V 2.75; F 2.88; Q 3.44; L 2.24; R 3.02; E 3.63; A 3.33; P 4.37; M 2.82; S 2.95; Y 2.89; T 3.16; G 2.62; W 2.76; D 3.69; K 2.67; N 3.06
R16: S 2.21; P 2.33; F 2.07; C 1.62; G 1.73; T 2.23; H 2.17; V 1.84; L 1.81; K 2.41; N 2.34; I 2.12; Q 2.33; A 2.45; E 2.41; Y 1.75; M 2.97; W 1.66; D 2.25
L11: V 1.99; N 2.3; P 2.23; I 2.32; Q 2.54; H 3.28; A 1.71; M 2.64; Y 3.19; T 2.16; C 2.41; R 3.19; F 1.7; S 2.03; W 2.85; K 3.32; E 2.52; D 3.33; G 1.74
G3: H 3.25; L 3.26; K 3.26; F 1.74; A 3.22; M 3.16; V 3.1; N 3.56; P 3.38; Q 2.45; Y 3.36; E 3.67; W 1.96; R 3.96; S 2.9; T 3.75; I 2.5; C 3.23; D 3.13
A6: H 2.12; G 2.54; Q 2.59; I 2.06; R 3.08; E 3.04; D 3.52; F 1.83; W 1.82; N 2; K 2.3; M 2.58; S 2.14; C 1.65; V 1.85; T 2.33; L 2.24; P 2.77; Y 2.59
A18: K 2.81; S 1.88; W 1.63; H 2.04; Y 1.85; E 3.1; P 3.65; V 1.99; T 2.47; D 2.02; L 2.79; I 2.12; M 1.77; Q 2.61; C 1.79; N 2.45; G 1.89; R 3.02; F 2.07
W12: H 2.16; S 2.61; T 2.54; A 3.38; K 3.18; I 2.07; D 2.92; P 2.14; V 2.44; N 2.3; Y 2.63; R 3.35; F 2.1; E 3.17; M 1.84; C 1.45; L 2.24; G 1.64; Q 2.72
H14: E 2.33; I 1.78; Y 1.98; T 2.28; G 2.76; S 2.2; M 1.99; F 1.68; R 2.32; D 2.13; P 2.1; A 2.3; C 2.17; V 2.33; Q 2.51; N 2.16; K 2.2; W 1.74; L 2.62
H19: M 1.73; L 2.53; D 2.03; F 2.84; E 2.21; A 2.74; T 2.14; V 3.03; I 2.3; G 2.14; N 1.58; S 2.29; Y 2.5; P 2.11; K 2.54; Q 2.2; R 2.68; W 2.14; C 2.7
